Measurements taken from patent US7745574B2, “Compounds that regulate apoptosis” (The Burnham Institute, priority 2005, dated 2010).
Where a SMILES comes first, the peptide text is derived from it. Bridges are numbered along the chain shown (N, C = ends). [ ]: non-standard residue; d: D form. The star is where a group is joined. FITC = O=C1OC2(c3ccc(O)cc3Oc3cc(O)ccc32)c2ccc(NC(=S)*)cc21; Ahx = NCCCCCC(=O)O

How the values were obtained:
[1] = target: T1, GST-Bcl-2 (Homo sapiens, UniProt P10415); experiment: Fluorescence polarization (FP) assay, GST-Bcl-2; type: binding
T1 construct: made in house
T1 sequence (P10415 whole entry): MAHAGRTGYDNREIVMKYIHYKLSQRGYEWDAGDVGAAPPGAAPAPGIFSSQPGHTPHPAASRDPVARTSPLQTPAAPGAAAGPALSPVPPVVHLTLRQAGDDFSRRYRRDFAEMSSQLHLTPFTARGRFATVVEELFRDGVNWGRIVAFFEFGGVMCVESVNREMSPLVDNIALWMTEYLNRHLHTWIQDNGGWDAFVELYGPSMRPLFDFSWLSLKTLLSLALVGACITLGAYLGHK
Method: (§1) Fluorescence polarization (FP) assays. GST-Bcl-2, GST-Bcl-XL, or GST protein was briefly incubated with FITC-conjugated peptide with or without competitors in Greiner Fluotrac 600 96-well microplates. Fluorescence polarization was recorded using an Analyst HT 96-384 microplate reader (Molecular Devices, Sunnyvale, Calif.) with excitation wavelength set at 485 nm and dynamic polarizer for emission at 530 nm.

[2] = target: T2, Bcl-2 (Homo sapiens, UniProt P10415); experiment: FP competition assay on Bcl-2; type: binding
Method: as §1
Target sequence in this assay (P10415 whole entry): as above

[3] = target: T2, Bcl-2; experiment: Bcl-2 conformational change, anti-Bcl-2/BH3 antibody staining of HEK293T cells transfected with Bcl-2; type: cell-based; set-up: expressed in transfected cells; host or cells: HEK293T; conditions: flow cytometry
Method: Such a Bcl-2 conformation is recognized by an anti-Bcl-2 antibody raised against the Bcl-2 BH3 domain. To determine whether NuBCP-9 induced a Bcl-2 conformational change, flow cytometric assays were conducted which HEK293T cells transfected with Bcl-2 were exposed to NuBCPs and subsequently stained with the anti-Bcl-2/BH3 antibody.
Target sequence in this assay (P10415 whole entry): as above

[4] = target: T2, Bcl-2; experiment: Immunoprecipitation of endogenous Bcl-2 by anti-Bcl-2/BH3 antibody in treated cells; type: cell-based; set-up: precipitated endogenous Bcl-2 in cells treated with L-NuBCP-9-r8 or D-NuBCP-9-r8; endogenous in cells
Target sequence in this assay (P10415 whole entry, species assumed): as the sequence (P10415 whole entry) above

[5] = target: T1, GST-Bcl-2; experiment: Circular dichroism (CD) spectroscopy, GST-Bcl-2; type: binding
Method: (§2) Circular dichroism (CD) spectroscopy. Stock solutions of 3 mM peptide in 30% acetonitrile/water were added to 0.5 mL of 2 μM purified GST-proteins in PBS, pH 7.6. CD spectra were obtained in a 0.2 cm pathlength cell at 20° C. using an AVIV 62 DS spectropolarimeter for a wavelength range from 200 to 260 nm with a step size of 1 nm averaged for 5 sec. Three spectra were corrected for background and averaged for each sample. The Kd was determined using nonlinear regression analysis for a one-site-binding model (χ2>0.98). Stoichiometry was determined from a […] (Jones, G. et al. 2002 Tet. Let. 43 :6079-6082).

[6] = target: Bcl-XL (Homo sapiens, UniProt Q07817); experiment: Circular dichroism (CD) spectroscopy, Bcl-XL; type: binding
Sequence of Bcl-XL (Q07817 whole entry, species assumed): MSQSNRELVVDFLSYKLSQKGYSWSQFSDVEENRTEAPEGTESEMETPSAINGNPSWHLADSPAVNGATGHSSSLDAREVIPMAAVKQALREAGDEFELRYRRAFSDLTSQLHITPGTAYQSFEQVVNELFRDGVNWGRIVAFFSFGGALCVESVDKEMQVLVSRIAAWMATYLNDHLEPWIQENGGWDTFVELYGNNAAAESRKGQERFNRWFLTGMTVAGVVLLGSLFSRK
Method: as §2

[7] = target: GST (Schistosoma japonicum, UniProt P08515); experiment: Circular dichroism (CD) spectroscopy, GST; type: binding
Sequence of GST (P08515 whole entry): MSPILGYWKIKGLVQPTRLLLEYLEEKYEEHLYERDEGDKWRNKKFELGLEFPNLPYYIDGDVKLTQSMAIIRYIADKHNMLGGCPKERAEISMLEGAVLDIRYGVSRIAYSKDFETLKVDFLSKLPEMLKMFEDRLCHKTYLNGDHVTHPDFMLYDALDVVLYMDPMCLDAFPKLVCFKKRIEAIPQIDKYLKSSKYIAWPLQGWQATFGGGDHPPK
Method: as §2

[8] = system: Jurkat or CEM cells; experiment: Apoptosis in Jurkat or CEM cells stably expressing Bcl-2; type: cell-based
Method: Cell culture. H460 lung cancer cells were maintained in RPMI 1640 medium supplemented with 10% fetal bovine serum (FBS). HEK293T embryonic kidney cells were grown in DME medium supplemented with 10% FBS. Jurkat and Jurkat cells stably expressing Bcl-2 were kindly provided by Dr. John Reed, and they were maintained in RPMI1640 medium.

## FITC-NuBCP-9/AA-r8: FITC-conjugated NuBCP-9/AA-r8 peptide ({FITC}-ASRSLHSLAG[Ahx][dR][dR][dR][dR][dR][dR][dR][dR]-NH2)
[1]
  FP of FITC-peptide induced by GST-Bcl-2: little affected

## CN(C)CC[C@H](CSc1ccccc1)Nc1ccc(S(=O)(=O)NC(=O)c2ccc(N3CCN(Cc4ccccc4-c4ccc(Cl)cc4)CC3)cc2)cc1[N+](=O)[O-] [ABT-737, reference compound]
[2]
  competition for binding of FITC-L-NuBCP-9-r8 or FITC-D-NuBCP-9-r8 to Bcl-2: failure

## t-Bid BH3 peptide-r8: BH3 peptide derived from pro-apoptotic Bcl-2 family member t-Bid, conjugated with r8 (Ac-EDIIRNIARHLAQVGDSMDRC[Ahx][dR][dR][dR][dR][dR][dR][dR][dR]-NH2; also: Cys thiol joined to chloroacetyl-Ahx by thioether) [reference compound]
[3]
  Bcl-2 immunofluorescence by anti-Bcl-2/BH3 antibody: did not show any Bcl-2 immunofluorescence
[4]
  precipitation of endogenous Bcl-2 by anti-Bcl-2/BH3 antibody: not

## CC(=O)N[C@@H](Cc1ccccc1)C(=O)N[C@@H](CO)C(=O)N[C@@H](CCCNC(=N)N)C(=O)N[C@@H](CO)C(=O)N[C@@H](CC(C)C)C(=O)N[C@@H](Cc1c[nH]cn1)C(=O)N[C@@H](CO)C(=O)N[C@@H](CC(C)C)C(=O)N[C@@H](CC(C)C)C(N)=O [NuBCP-9, FSRSLHSLL] (Ac-FSRSLHSLL-NH2)
[2]
  competition for binding of FITC-L-NuBCP-9-r8 or FITC-D-NuBCP-9-r8 to Bcl-2: competed
[5]
  Kd: 2.1 ± 0.2 µM
[6]
  effect on CD spectra for Bcl-XL: no effect
[7]
  effect on CD spectra for GST: no effect

## CN[C@@H]1C[C@H]2O[C@@](C)([C@@H]1OC)n1c3ccccc3c3c4c(c5c6ccccc6n2c5c31)C(=O)NC4 [staurosporine]
[8]
  effect of stable expression of Bcl-2 on induced apoptosis/cell death: attenuated

## Bad BH3 peptide-CC-Ant: Bad BH3 peptide, Ser replaced with Ala, disulfide-linked to Ant (Ac-NLWAAQRYGRELRRMADEFVDAFKKCCRQIKIWFQNRRMKWKK-NH2; disulfide 26-27; also: Bad BH3 peptide and Ant are two peptides joined by C26-C27 disulfide, no peptide bond)
[8]
  effect of stable expression of Bcl-2 on induced apoptosis/cell death: attenuated

## NuBCP-9/AA: unconjugated NuBCP-9 with Ala substituted for the terminal amino acids (Ac-ASRSLHSLAG[Ahx][dR][dR][dR][dR][dR][dR][dR][dR]-NH2; SMILES CC(=O)N[C@@H](C)C(=O)N[C@@H](CO)C(=O)N[C@@H](CCCNC(=N)N)C(=O)N[C@@H](CO)C(=O)N[C@@H](CC(C)C)C(=O)N[C@@H](Cc1c[nH]cn1)C(=O)N[C@@H](CO)C(=O)N[C@@H](CC(C)C)C(=O)N[C@@H](C)C(=O)NCC(=O)NCCCCCC(=O)N[C@H](CCCNC(=N)N)C(=O)N[C@H](CCCNC(=N)N)C(=O)N[C@H](CCCNC(=N)N)C(=O)N[C@H](CCCNC(=N)N)C(=O)N[C@H](CCCNC(=N)N)C(=O)N[C@H](CCCNC(=N)N)C(=O)N[C@H](CCCNC(=N)N)C(=O)N[C@H](CCCNC(=N)N)C(N)=O)
[2]
  competition for binding of FITC-L-NuBCP-9-r8 or FITC-D-NuBCP-9-r8 to Bcl-2: did not
[5]; peptide 30 μM, GST-Bcl-2 2 μM
  changes in GST-Bcl-2 protein CD spectra: not
[6]
  effect on CD spectra for Bcl-XL: no effect
[7]
  effect on CD spectra for GST: no effect
